To fix the notation:
B1: POU domain, class 3, transcription factor 2, residues 262 to 338; numbered along this chain, P20265 (parent)
chain: EDTPTSDDLEQFAKQFKQRRIKLGFTQADVGLALGTLYGNVFSQTTICRFEALQLSFKNMCKLKPLLNKWLEEADSS

± gives the uncertainty stated by the source.

In this data set the parent is B1. Briefly: abundance fitness (aPCA) (normalised: wild type 0, dead -1); higher = more abundant; growth selection in yeast, the domain comes from the species named. Particulars: Homo sapiens.
In the case of EDTPTSDDLEQFAKQFKQRRIKLGFTQADVGLALGTLQGNVFSQTTICRFEALQLSFKNMCKLKPLLNKWLEEADSS, the abundance fitness is -0.141 ± 0.052. EDTPTSDDLEQFAKQFKQRRIKLGFTQADVGLALGTLHGNVFSQTTICRFEALQLSFKNMCKLKPLLNKWLEEADSS: the abundance fitness is -0.029 ± 0.077. Turning to EDTPTSDDLEQFAKQFKQRRIKLGFTQADVGLALGTLRGNVFSQTTICRFEALQLSFKNMCKLKPLLNKWLEEADSS, the abundance fitness was -0.27 ± 0.031. With EDTPTSDDLEQFAKQFKQRRIKLGFTQADVGLALGTLLGNVFSQTTICRFEALQLSFKNMCKLKPLLNKWLEEADSS the figure was -0.41 ± 0.043; with EDTPTSDDLEQFAKQFKQRRIKLGFTQADVGLALGTLKGNVFSQTTICRFEALQLSFKNMCKLKPLLNKWLEEADSS, -0.234 ± 0.05; with EDTPTSDDLEQFAKQFKQRRIKLGFTQADVGLALGTLMGNVFSQTTICRFEALQLSFKNMCKLKPLLNKWLEEADSS, -0.331 ± 0.052.

For EDTPTSDDLEQFAKQFKQRRIKLGFTQADVGLALGTLVGNVFSQTTICRFEALQLSFKNMCKLKPLLNKWLEEADSS, the abundance fitness was -0.103 ± 0.033. The value for EDTPTSDDLEQFAKQFKQRRIKLGFTQADVGLALGTLPGNVFSQTTICRFEALQLSFKNMCKLKPLLNKWLEEADSS was -0.36 ± 0.058; that for EDTPTSDDLEQFAKQFKQRRIKLGFTQADVGLALGTLSGNVFSQTTICRFEALQLSFKNMCKLKPLLNKWLEEADSS was -0.012 ± 0.032; that for EDTPTSDDLEQFAKQFKQRRIKLGFTQADVGLALGTLIGNVFSQTTICRFEALQLSFKNMCKLKPLLNKWLEEADSS was -0.298 ± 0.07.

As for EDTPTSDDLEQFAKQFKQRRIKLGFTQADVGLALGTLNGNVFSQTTICRFEALQLSFKNMCKLKPLLNKWLEEADSS, the abundance fitness was -0.043 ± 0.051. EDTPTSDDLEQFAKQFKQRRIKLGFTQADVGLALGTLWGNVFSQTTICRFEALQLSFKNMCKLKPLLNKWLEEADSS: the abundance fitness is -0.341 ± 0.044.

As to EDTPTSDDLEQFAKQFKQRRIKLGFTQADVGLALGTLTGNVFSQTTICRFEALQLSFKNMCKLKPLLNKWLEEADSS, the abundance fitness was found to be 0.032 ± 0.039.

Consider EDTPTSDDLEQFAKQFKQRRIKLGFTQADVGLALGTLYGNYFSQTTICRFEALQLSFKNMCKLKPLLNKWLEEADSS, for which the abundance fitness was -0.12 ± 0.092. For the variant EDTPTSDDLEQFAKQFKQRRIKLGFTQADVGLALGTLYGNKFSQTTICRFEALQLSFKNMCKLKPLLNKWLEEADSS, the abundance fitness was 0.065 ± 0.057.

For the variant EDTPTSDDLEQFAKQFKQRRIKLGFTQADVGLALGTLYGNRFSQTTICRFEALQLSFKNMCKLKPLLNKWLEEADSS, the abundance fitness was -0.023 ± 0.033. The value for EDTPTSDDLEQFAKQFKQRRIKLGFTQADVGLALGTLYGNNFSQTTICRFEALQLSFKNMCKLKPLLNKWLEEADSS was 0.008 ± 0.079; that for EDTPTSDDLEQFAKQFKQRRIKLGFTQADVGLALGTLYGNDFSQTTICRFEALQLSFKNMCKLKPLLNKWLEEADSS was 0.047 ± 0.069; that for EDTPTSDDLEQFAKQFKQRRIKLGFTQADVGLALGTLYGNPFSQTTICRFEALQLSFKNMCKLKPLLNKWLEEADSS was -0.042 ± 0.069. With EDTPTSDDLEQFAKQFKQRRIKLGFTQADVGLALGTLYGNTFSQTTICRFEALQLSFKNMCKLKPLLNKWLEEADSS the figure was 0.009 ± 0.053; with EDTPTSDDLEQFAKQFKQRRIKLGFTQADVGLALGTLYGNIFSQTTICRFEALQLSFKNMCKLKPLLNKWLEEADSS, -0.157 ± 0.12; with EDTPTSDDLEQFAKQFKQRRIKLGFTQADVGLALGTLYGNHFSQTTICRFEALQLSFKNMCKLKPLLNKWLEEADSS, 0.039 ± 0.16. The value for EDTPTSDDLEQFAKQFKQRRIKLGFTQADVGLALGTLYGNWFSQTTICRFEALQLSFKNMCKLKPLLNKWLEEADSS was 0.004 ± 0.045; that for EDTPTSDDLEQFAKQFKQRRIKLGFTQADVGLALGTLYGNAFSQTTICRFEALQLSFKNMCKLKPLLNKWLEEADSS was 0.017 ± 0.039; that for EDTPTSDDLEQFAKQFKQRRIKLGFTQADVGLALGTLYGNGFSQTTICRFEALQLSFKNMCKLKPLLNKWLEEADSS was 0.021 ± 0.029. Consider EDTPTSDDLEQFAKQFKQRRIKLGFTQADVGLALGTLYGNCFSQTTICRFEALQLSFKNMCKLKPLLNKWLEEADSS, for which the abundance fitness was 0.036 ± 0.065. With EDTPTSDDLEQFAKQFKQRRIKLGFTQADVGLALGTLYGNSFSQTTICRFEALQLSFKNMCKLKPLLNKWLEEADSS the figure was -0.017 ± 0.045; with EDTPTSDDLEQFAKQFKQRRIKLGFTQADVGLALGTLYGNEFSQTTICRFEALQLSFKNMCKLKPLLNKWLEEADSS, 0.034 ± 0.038; with EDTPTSDDLEQFAKQFKQRRIKLGFTQADVGLALGTLYGNMFSQTTICRFEALQLSFKNMCKLKPLLNKWLEEADSS, 0.012 ± 0.068.

EDTPTSDDLEQFAKQFKQRRIKLGFTQADVGLALGTLYGNVKSQTTICRFEALQLSFKNMCKLKPLLNKWLEEADSS: the abundance fitness was -0.148 ± 0.043. The value for EDTPTSDDLEQFAKQFKQRRIKLGFTQADVGLALGTLYGNVASQTTICRFEALQLSFKNMCKLKPLLNKWLEEADSS was -0.012 ± 0.034; that for EDTPTSDDLEQFAKQFKQRRIKLGFTQADVGLALGTLYGNVGSQTTICRFEALQLSFKNMCKLKPLLNKWLEEADSS was -0.397 ± 0.033; that for EDTPTSDDLEQFAKQFKQRRIKLGFTQADVGLALGTLYGNVCSQTTICRFEALQLSFKNMCKLKPLLNKWLEEADSS was -0.006 ± 0.049. For the variant EDTPTSDDLEQFAKQFKQRRIKLGFTQADVGLALGTLYGNVHSQTTICRFEALQLSFKNMCKLKPLLNKWLEEADSS, the abundance fitness was -0.138 ± 0.096.

In the case of EDTPTSDDLEQFAKQFKQRRIKLGFTQADVGLALGTLYGNVISQTTICRFEALQLSFKNMCKLKPLLNKWLEEADSS, the abundance fitness is -0.037 ± 0.085.

The values are drawn from the Human Domainome abundance scans (Beltran et al. 2025).
